The record followed here is publication PMC9701222, “Molecular basis for DNA recognition by the maternal pioneer transcription factor FoxH1”.

The Kd is the concentration at which binding is half-saturated.

The target of data set [1] is T1, hFoxA2 FH (Homo sapiens) (UniProt Q9Y261).
T1 sequence: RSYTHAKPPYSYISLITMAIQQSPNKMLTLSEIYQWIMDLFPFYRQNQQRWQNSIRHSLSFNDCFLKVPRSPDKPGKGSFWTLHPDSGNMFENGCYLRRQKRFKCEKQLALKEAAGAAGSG
The experiment in a line: BLI. Particulars: BLI: 20 mM Tris pH 7.6, 100 mM NaCl, 2 mM DTT, 0.02% Tween-20, 0.01% BSA, 25 C; EMSA: 100 mM Tris, 10% glycerol, 7.5 nM Cy5-DNA, 4 C. In general terms: Mobility shift assays separate free from complexed probe on a gel.

Data set [2] concerns the target T2, FoxH1 FH domain (species not stated) (UniProt O75593).
T2 sequence: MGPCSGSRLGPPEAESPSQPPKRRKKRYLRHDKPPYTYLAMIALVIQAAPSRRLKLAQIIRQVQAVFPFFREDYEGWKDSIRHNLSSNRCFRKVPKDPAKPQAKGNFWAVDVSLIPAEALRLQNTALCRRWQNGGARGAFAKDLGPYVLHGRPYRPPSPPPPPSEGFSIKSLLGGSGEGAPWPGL
The experiment in a line: BLI. Particulars: BLI: 20 mM Tris pH 7.6, 100 mM NaCl, 2 mM DTT, 0.02% Tween-20, 0.01% BSA, 25 C; EMSA: 100 mM Tris, 10% glycerol, 7.5 nM Cy5-DNA, 4 C.

The target of data set [3] is T3, hFoxA2 FH (Homo sapiens, UniProt Q9Y261 153-273).
T3 sequence: T1 sequence
The data set can be described thus: EMSA; BLI: 20 mM Tris pH 7.6, 100 mM NaCl, 2 mM DTT, 0.02% Tween-20, 0.01% BSA, 25 C; EMSA: 100 mM Tris, 10% glycerol, 7.5 nM Cy5-DNA, 4 C. Particulars: protein: recombinant; tags: His-SUMO removed (Ulp1); label: 5'-Cy5.

Data set [4] concerns the target T4, dFoxH1 FH (Danio rerio, UniProt Q9I9E1 86-210).
T4 sequence: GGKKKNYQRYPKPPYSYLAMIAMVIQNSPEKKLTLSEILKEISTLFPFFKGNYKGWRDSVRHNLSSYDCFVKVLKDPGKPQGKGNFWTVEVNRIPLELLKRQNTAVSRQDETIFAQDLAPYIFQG
The data set can be described thus: X-ray; BLI: 20 mM Tris pH 7.6, 100 mM NaCl, 2 mM DTT, 0.02% Tween-20, 0.01% BSA, 25 C; EMSA: 100 mM Tris, 10% glycerol, 7.5 nM Cy5-DNA, 4 C. Particulars: protein: recombinant; tags: His-SUMO removed (Ulp1); blunt.

In data set [5] the target is T3, hFoxA2 FH. The description is as above. Particulars: protein: recombinant; tags: His-SUMO removed (Ulp1); blunt.
The target of data set [6] is T3, hFoxA2 FH. The data set can be described thus: BLI; BLI: 20 mM Tris pH 7.6, 100 mM NaCl, 2 mM DTT, 0.02% Tween-20, 0.01% BSA, 25 C; EMSA: 100 mM Tris, 10% glycerol, 7.5 nM Cy5-DNA, 4 C. Particulars: protein: recombinant; tags: His-SUMO removed (Ulp1); label: 5'-biotin (BLI). A general note: In BLI a coated tip is dipped into the sample, and binding shifts an interference pattern.

Data set [7] concerns the target T4, dFoxH1 FH. The experiment in a line: X-ray; K+; BLI: 20 mM Tris pH 7.6, 100 mM NaCl, 2 mM DTT, 0.02% Tween-20, 0.01% BSA, 25 C; EMSA: 100 mM Tris, 10% glycerol, 7.5 nM Cy5-DNA, 4 C. Particulars: protein: recombinant; tags: His-SUMO removed (Ulp1); blunt.

With “ACAAGGCCTGAAAAGAGATTGTGGATTGCGAATTAATGAAATTAACCTAATCTTTTCCATTCGGCAGCCGGGCCGCGGGCCGGCCGAGCTGGGCGGGCGGCCTAATTGCCTTGGTTAATCTCATTAATTCCTTTGTGCCGCCGCAGTTAACAACTCCCTCCGCCCGA (double strand) [Gsc167 nucleosome]”, the Kd in data set [1] came to 30 nM; in data set [2], 5 nM.
In data set [2], “ACAAGGCCTGAAAAGAGATTGTGGATTGCGAATTAATGAAATTAACCTAATCTTTTCCATTCGGCAGCCGGGCCGCGGGCCGGCCGAGCTGGGCGGGCGGCCTAATTGCCTTGGTTAATCTCATTAATTCCTTTGTGCCGCCGCAGTTAACAACTCCCTCCGCCCGA (double strand) [Gsc167 linear DNA]” registered a Kd of 13 nM.

B1: TT forkhead DNA, 16 bp (EMSA) (dsDNA)
DNA 1: AGATTGTTTACTGAGA
DNA 2: TCTCAGTAAACAATCT
Consider B1, for which the binding result in data set [3] is on record as “binds”.

B2: dGSC-TT-16a (dsDNA)
DNA 1: AGATTGTTTATTGAGA
DNA 2: TCTCAATAAACAATCT
For the molecule B2, the binding result in data set [4] and in data set [5] was “binds” each time.

B3: FKH-TTACT-GSCflank (dsDNA)
DNA 1: AGATTGTTTACTGAGA
DNA 2: TCTCAGTAAACAATCT
Turning to B3, the binding result in data set [4] and in data set [5] was “binds” in each case.

B4: Gsc167 linear DNA (dsDNA)
DNA 1: ACAAGGCCTGAAAAGAGATTGTGGATTGCGAATTAATGAAATTAACCTAATCTTTTCCATTCGGCAGCCGGGCCGCGGGCCGGCCGAGCTGGGCGGGCGGCCTAATTGCCTTGGTTAATCTCATTAATTCCTTTGTGCCGCCGCAGTTAACAACTCCCTCCGCCCGA
DNA 2: TCGGGCGGAGGGAGTTGTTAACTGCGGCGGCACAAAGGAATTAATGAGATTAACCAAGGCAATTAGGCCGCCCGCCCAGCTCGGCCGGCCCGCGGCCCGGCTGCCGAATGGAAAAGATTAGGTTAATTTCATTAATTCGCAATCCACAATCTCTTTTCAGGCCTTGT
Consider B4, for which, in data set [6], the dissociation constant Kd was determined as 800 nM.

B5: dGSC-GG-16a (dsDNA)
DNA 1: AGATTGTGGATTGAGA
DNA 2: TCTCAATCCACAATCT
With B5, in data set [7], the binding result is “binds”.

B6: dGSC-GT-16a (dsDNA)
DNA 1: AGATTGTGTATTGAGA
DNA 2: TCTCAATACACAATCT
As for B6, in data set [7], the binding result was “binds”.
